Source: the nanobody polyreactivity screen of Harvey et al. (2022)

Assay: yeast display, Sf9 membrane polyspecificity reagent, FACS + sequencing; frameworks hold sequencing errors
Procedure, shortened: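 Genes from sorted yeast were amplified by colony PCR, read by MiSeq 2 × 250 sequencing and filtered on CDR length. These cells carried a synthetic nanobody library in Saccharomyces cerevisiae BJ5465 and were sorted by FACS into low and high (top ~1%) gates on anti-HA and streptavidin fluorescence. Polyreactivity is labelled according to the gate of origin.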

For “QVQLVESGGGLVQAGGSLRLSCSASGSIFKIYAMGWYRQAPGKERELVASITGSGGSTYYADSVKGRFTISRDNAKNTVYLQMNSLKPEDTAVYYCAAAVLGSSKSEVDPDRPEYYYWGQGTQVTVSS”, which “polyreactivity (PSR sort gate)” value is on record?
The value was “low polyreactivity”.

With “QGQLVESGGGLVQAGGSLRLSCAASGSIFNTYAMGWYRQAPGKEREFVASISRSGGSTRYADSVKGRFTISRDNAKNTVYLQMNSLKPEDTEVYYSAARVPRGHVTYDSWGQGTKVTVSS” as the sequence, how does the “polyreactivity (PSR sort gate)” value read?
Its value is “high polyreactivity”.

For “QVQLVESGGGLVQAGGSLRLSCAASGRIFYQNVMGWYRQAPGKERELVAAITTSGGRTYYADSVKGRFTISRDNAKNTVYLQMNSLKPEDTAVYYCAAKASNRGYYYWGQGTQVTVSS”, which “polyreactivity (PSR sort gate)” value is on record?
Its value is “high polyreactivity”.

Which “polyreactivity (PSR sort gate)” value does the source give for “QVQLVESGGGLVQAGGSLRLSCAASGSTFNPYTMGWPRQAPGKERELVATITRIGGSTYYADSVKGRFTISRDNAKNTVDLQMNSLKPEDNAVYYCAADHYRSVRWRSDYTYRVNYWGQGTQVTVSS” here?
The value was “high polyreactivity”.

For “QVQLVESGGGLVQAGGSLRLSCAASGSTFRYYAMGWYRQAPGKERELVAAITSGGSTNYADSVKGRFTISRDNAKNTVYLQMNSLKPEDTAVYYCAAGRRLRHRYNQGGPDYGYWGQGSQVTVSS”, which “polyreactivity (PSR sort gate)” value is on record?
The value was “low polyreactivity”.

With “QVQHVESGGGLVQAGGSLRLSGAASGSTFQSYAMGWYRQAPGQERELVAAISTSDTDRTYYADSVKGRFTISRDNAKNTVYLQMNSLKPEDTAVYYCNADGYAHGDWYGYWGQGTQVTVSS” as the sequence, how does the “polyreactivity (PSR sort gate)” value read?
The value was “low polyreactivity”.

With “QVQLVESGGGLVQAGGSLRLSCAASGLIFRVYAMGWYRQAPGKERELVAAITWSDGSTYYADSVKGRFTISRDNAKNTVYLQMNSLKPEDTAVYYCAAEFWYDWDYDYYYWGQGTQVTVSS” as the sequence, how does the “polyreactivity (PSR sort gate)” value read?
The value was “high polyreactivity”.

Which “polyreactivity (PSR sort gate)” value does the source give for “QVQLLESGGGLVQAGGSLRLSCAASGNIFQVNAMGWYRQAPGKERELVASISRRGGSTNYADSVKGRFTISRDNAKNTVYLQMNSLKPEDTAVYYCAAVARRGSYLGQRLDYWGQGTQVTVSS” here?
Its value is “high polyreactivity”.

Which “polyreactivity (PSR sort gate)” value does the source give for “QVQLVESGGGLVQAGGSLRLSCAASGSTFYYNAMGWYRQAPGKERELVAVITLNGGRTSYADSVKGRFTISRDNAKITVYLQMNSLKPEDTAVYYCAADRYRGYGYWGQGTQVTVSS” here?
The value was “low polyreactivity”.

With “QVQHVDSGGGLVQAGGSLRLSCAASGFIFSYYAMGWYRQAPVKERELVAGISYNGDRTYYADSVKGRFTISRDNAKNTFYLQMKSLKPEDTAVYYCNVVWVLGGWYDLEYDYWGQGTQVTVSS” as the sequence, how does the “polyreactivity (PSR sort gate)” value read?
Its value is “high polyreactivity”.

With “QVQLVESGGGLVQAGGSHRLSSAASVRIFRGYAMGWYRPAPGKERELVAVISYSGTRTYYADSVKGRFTISRDNAKNTVYLQMNSLKPEDTAVYYCNASANGFKEGYWGQGTQVTVSS” as the sequence, how does the “polyreactivity (PSR sort gate)” value read?
The value was “high polyreactivity”.

With “QVQLVESGGGLVQAGGSLRLSCAASGNTFPTYAMGWYRQAHGKERELVAAINKRGSNTYYADSVKGRFTISRDNAKNTVYLQMNSLKPEDTADYYARAAGEYDYWGQGTQVTVSS” as the sequence, how does the “polyreactivity (PSR sort gate)” value read?
The value was “high polyreactivity”.

Which “polyreactivity (PSR sort gate)” value does the source give for “QLQLVESGGGLVQAGGSLRLSCAASGRTFAIYAMGWYRQAPGKERELVAAIRKRGSITYYADSVKGRFTISRDNAKNTVYLQMNSLKPDATAVYYCAVDYWGQGTQVTVSS” here?
The value was “high polyreactivity”.

Which “polyreactivity (PSR sort gate)” value does the source give for “QVQLVESGGGLVQAGGSLRLSCAASGIIFDGYAMGWYRQAPGKERELVAAISGHGGSTYYADSVKGRFTISRDNAKNTVYLQMNSLKPEDTAVYYCAAEYVYWRIGQYDYWGQGTQVTVSS” here?
The value was “high polyreactivity”.

With “QVQLVESGGGLVQAGGSLRLSCAASGSTFFPNGMGWYRLAPGKERELVAAITQDGGSTYYADSVKGRFTISRDNAKNTVSLQMNSLKPEDTAVYYCAASAGPSYEYGYWGQGTQVTVSS” as the sequence, how does the “polyreactivity (PSR sort gate)” value read?
The value was “low polyreactivity”.

For “QVQLVESGVGLVQAGGSLSLSCASSGFIFSANDMGWYRPAPGKERELVADIDSSGRTNYADSVKGRVTISRDNAKNTVYLQMNSLKPEDTAVYYCATPPDDTGGGYRGYDYWGQGTQVTVSS”, which “polyreactivity (PSR sort gate)” value is on record?
Its value is “low polyreactivity”.

Which “polyreactivity (PSR sort gate)” value does the source give for “QVQLVESGGGLVQAGGSLRLSCAASASIFYQNAMGWYRQAPGKERELVAAISSAGSTYYADSVKGRFTISRDNAKNTVYLQMNSVKPEDTAVYYLLRGQGTQVTVSS” here?
Its value is “low polyreactivity”.

With “QVQLVESGGGLVQAGGSLRLSCAAYGSILARYAMGWYRQAPGKERELVAAISYNGGSTYYADSVKGRFTISRDNAKNTVYLQMNSLKPEDTAVYYCAKAYDTTLTYNFWGQGTQVTVSS” as the sequence, how does the “polyreactivity (PSR sort gate)” value read?
Its value is “low polyreactivity”.

With “QVQLVESGGGLVQAGGSLRLSSAASGSTFGSYTMGWYRQAPGKERELVAAINWSGGNTYYADSVKGRFTISRDNAKNTVYLQMNSLKPEDPAVYYCAAAFYIYGVEGDYWGQGTQVTVSS” as the sequence, how does the “polyreactivity (PSR sort gate)” value read?
The value was “low polyreactivity”.

Which “polyreactivity (PSR sort gate)” value does the source give for “QVQLVESDGGLVQAGGSLRLSCAASGSTFRYNAMGWYRQAPGKERELVAAISWGGGTPFYADSVKGRFTISRDNAKNTVYLQMNSLTPEDTAVYYCAASYRDYPWGRYYYWGQGTQVTVSS” here?
The value was “low polyreactivity”.

For “QVQLVESGGGLVQAGVSLRLSCAASGSIFAYYAMGWYRQAPGKERELVATIRSSGGRTYYADSVKGRFTISRDNAKNNVYLHLNSLKPEDTAVYYCAAERSITYDYWGQGTQVTVSS”, which “polyreactivity (PSR sort gate)” value is on record?
The value was “high polyreactivity”.

For “QVQLVESGGGLVQAGGSLRLSCGASGSIFKYYAMGWYREARGKERELVAAITWSGGRTNYADSVKGRFTISRDNAKNTVYLQMNSLKPEDTAVYYCAATRRRYRPYEYWGLGTQVTVSS”, which “polyreactivity (PSR sort gate)” value is on record?
Its value is “high polyreactivity”.

With “QVQLVESGGGLVQAGGSLRLSCAASGRTFGSNAMGWYRQAPGKERELVAAISGRTDSTYYADSVKGRFTISRDNAKNTVYLQMNSLKPEDTAVFYCAADSGDVLYYYIRYNYWGQGTQVTVSS” as the sequence, how does the “polyreactivity (PSR sort gate)” value read?
Its value is “low polyreactivity”.

For “QVQLVESGGGLVQAGGSLRLSCAASGFTFVLYAMGWYRQAPGKERELVATITSSGRTNYADSVKGRFTISRDNAKNTVYLQMNSLKPEDTAVYYCAARGGRRYDYWGQGTQVTVSS”, which “polyreactivity (PSR sort gate)” value is on record?
Its value is “high polyreactivity”.

For “QVQLVESGGGLVQAGGSLRLSCAASGSTFDSYAMGWYRQAPGKERELVAAISRSGGRTYYADSVKGRFTISRDNAKNTVYLQMNSLKPEDTAVYYCNAAYKRWVTPGYDAYDYWGQGTQVTVSS”, which “polyreactivity (PSR sort gate)” value is on record?
Its value is “high polyreactivity”.

Which “polyreactivity (PSR sort gate)” value does the source give for “QVQLVESGGGLVQAGGSLRLSCAASGSISYQNAMGWYRQAPGKERELVAAITSSGGNTYYADSVKGRFTISRDNAKNTVYLQMNSLKPEDTAVYYCNAVLYYDSYLYYYWGQGTQVTVSS” here?
The value was “low polyreactivity”.

With “QVQLVESGGGLVQAGGSLRLSCAASGRTFYSYAMGWYRQAPGKERELVAAISFRDGRTYYADSVKGRFTISRDNAKNTVYLQMNSLKPEDTAVYYCAAQLSHYYSLYYYWGQGTQVTVSS” as the sequence, how does the “polyreactivity (PSR sort gate)” value read?
The value was “high polyreactivity”.

With “QVQLVESGGGLVQAGGSLRLSCAASGRTICRNVMGWYRQAPGKERELVAAISRSGGSTYYADSVKGRFTISRDNAKNTVYLQMNSLKPEVTAVYYCAAYSVGDYYWGQGTQVTVSS” as the sequence, how does the “polyreactivity (PSR sort gate)” value read?
Its value is “high polyreactivity”.

For “QVQLVESGGGLVQAGGSLRLSCAASGRIFSYNAMGWYRQAPGQERELVAAITTGGSTYYADSVKGRFTISRDNAKNTVYLQMNSLKPEDTAVYYCNKLGYYYDRRYDYWRQGTQVTVSS”, which “polyreactivity (PSR sort gate)” value is on record?
Its value is “high polyreactivity”.

With “QVQLVESGGGLVQAGGSLRLSCAASGRTFVFNAMGWYRQAPGKERELVAAISRSGGSTYYADSVKGRFTISRDNAKNTVYLQMNSLKPEDTAVYYCAADKYYLFALYEYGYWGQGTQVTVSS” as the sequence, how does the “polyreactivity (PSR sort gate)” value read?
The value was “high polyreactivity”.

For “QVQLVESGGGLVQAGGSLRLSCAASGSILWDNAMGWYRQAPGKERELVATISVSGGGTYYADSVKGRFTISLDNAKNTVYLQMNSLKPEDTSVYYCNARYGNESQGWEDYWGQGTQVTVSS”, which “polyreactivity (PSR sort gate)” value is on record?
The value was “low polyreactivity”.

Which “polyreactivity (PSR sort gate)” value does the source give for “QVQLEESGGSLVQAAGSLRLSCAASGSIFSPYAMGWYRQAPGKERELVAAITWRGGTFYADSVKGRFTISRDNAKNTVDLQMNSLKPEDTAVYYCNARFGQTVKGTYGRYYYWGQGTHVTVSS” here?
The value was “high polyreactivity”.

Which “polyreactivity (PSR sort gate)” value does the source give for “QVQLVESGGGLVQAGCSLRLSCAASGRTFVYNAMGWYRKAPGKERELVAGITGSGDSTYYADSVKGRFTISRDNAKNTVYLQMNSMKPEDTAVYYCNQLVEEDYWGQGTQVTVSS” here?
Its value is “low polyreactivity”.

For “QVQLVESGGGLVQAGGSLRLSCAASGSIFYSNAMGWYRQAPGKERELVAAITWRGGSTYYADSVKGRFTISRDNAKYTVYLQLNSLKPEDTAVYYCNADGSARTPYYYRWYRYGYWGQGTQVTVSS”, which “polyreactivity (PSR sort gate)” value is on record?
The value was “high polyreactivity”.

With “QVQLVESGGGLVQAGGSLRLSCAASGSIFVTNAMGWYRQAPGKERELVAAIRWSGDSTYYADSVKGRFTISRDNAKNTVYLQMKSLKPEDTAVYYCDAESFRYIRLNYKYGDYYWGHGTQVTVSS” as the sequence, how does the “polyreactivity (PSR sort gate)” value read?
Its value is “high polyreactivity”.

With “QVQLVESGGGLVQAGGSLRLSCAASGSTFLDNAMGWYIQAPGKERELVAAITQSGSSTYYPDSVKGRFTISRDTAKNTVYLQMNSLKPEATAVYYCAADVPNISFDYWGQGTQVTVSS” as the sequence, how does the “polyreactivity (PSR sort gate)” value read?
The value was “low polyreactivity”.

For “QVQLVESGGGLVQAGGSLRLICAASGSTFLVNTMGWYRQAPGKERELVAAISYSGGRTYYADSVKGRFTISRDNAKNTVYFQMNSLKPEDTAVYYCAARYYRTRREGVDYWGQGTQVTVSS”, which “polyreactivity (PSR sort gate)” value is on record?
Its value is “high polyreactivity”.

Which “polyreactivity (PSR sort gate)” value does the source give for “QVQLVESGGGLVQAGGSLRLSCAASGSTFYTYTAMGWYRQAPGKERELVAAITWRGGSTYYADSVKGRFTISRDNAKNTVYLHMNRLKPEDTSGYYCAADCVMTWWAYDYWGQGTQVTVSS” here?
Its value is “high polyreactivity”.

Which “polyreactivity (PSR sort gate)” value does the source give for “QVQLVESGGGLVQAGGSLRLSCAASGLIFYDYAMGWYRPAPGKERELVAAITSSDSTYYADSVKGRFTISRDNAQNTVYLQMNSLKPEDTAVYYCAAKPYYFYGMDYWGQGTQVTVSS” here?
The value was “high polyreactivity”.

Which “polyreactivity (PSR sort gate)” value does the source give for “QVQLVESGGGLVQAGGSLRLSCAASGFIFLIYAIGWYRQAPGTERELVATIRYSGGRTYYADSVKGRFTISRDNAKNTVYLQMNSLKPEDTAVYYCAARSVWFSGQGRMNYWGQGTQVTGSS” here?
The value was “high polyreactivity”.

With “QVQLVESGGGLVQAGGSLRLSCAASGLTFDWYTMGWYRQAPGKERELVATINSGGSTDYADSVKRRFTISRDNAKNTVYLQMNSLKPEDTAVYYCAAQPFVIDGGYRGDYWGQGTQVTVSS” as the sequence, how does the “polyreactivity (PSR sort gate)” value read?
The value was “low polyreactivity”.

With “QFQLVESGGGLVQAGGSLRLSCAASGSTFLLYAMGWYRQAPGKEREFVASISGDGSSNYADSVKGRFTISRDNAKITVYLQMNSLKPEDTAVYYCAAVLLDPDSTLESGGNFDYWGQGTQVTVSS” as the sequence, how does the “polyreactivity (PSR sort gate)” value read?
Its value is “low polyreactivity”.

Which “polyreactivity (PSR sort gate)” value does the source give for “QVQLVESVGGLVQAGGSLRLSCAASGRTVGGNAMGWYRQAPGKERELVAAINRSGGTTYYADSVKGRFTISRDNAKNTVYLQMNSLKPEDTAVYYCAARRTVSATRMGYWGQGTQVTVSS” here?
Its value is “high polyreactivity”.
